Test results reported in paper PMC6353796, “Thermostable Branched-Chain Amino Acid Transaminases From the Archaea Geoglobus acetivorans and Archaeoglobus fulgidus: Biochemical and Structural Characterization” (Frontiers in Bioengineering and Biotechnology, 2019).
Values joined by “and” are separate entries in the source; they are usually repeats but may differ in a detail not shown here. Identical values can stand only once.

Legend:
[1] = target: GEO1900, branched-chain amino acid transaminase (BCAT) from Geoglobus acetivorans (Geoglobus acetivorans); assay: crystal structure; GEO1900 holo form and AKG complex, space group P3(2)21, three subunits per asymmetric unit; hexamer built with symmetry mates
[2] = target: GEO1900, branched-chain amino acid transaminase (BCAT) from Geoglobus acetivorans (Geoglobus acetivorans); assay: SEC; GEO1900 on Superdex 200 in 30 mM Tris-HCl, pH 8.0, 300 mM NaCl; native molecular weight by gel filtration

In the case of “GEO1900, branched-chain amino acid transaminase (BCAT) from Geoglobus acetivorans (enzyme)”, the stoichiometry N [1] is reported as 6 and the stoichiometry N [2] is reported as 2 and 4.
